Measurements reported in article doi:10.1101/634915 (bioRxiv, 2019).

Molecular target: RlucII-Rab7A (UniProt P51149 1-207)
Assay: FRET or BRET

Sequence of RlucII-Rab7A (P51149 whole entry): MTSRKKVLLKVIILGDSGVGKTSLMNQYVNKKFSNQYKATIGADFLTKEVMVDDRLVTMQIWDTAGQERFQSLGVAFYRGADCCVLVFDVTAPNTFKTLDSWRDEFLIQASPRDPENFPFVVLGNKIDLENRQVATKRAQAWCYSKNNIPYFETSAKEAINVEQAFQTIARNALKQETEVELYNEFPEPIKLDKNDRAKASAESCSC

fold change of BRET50, CLN3-KO against wild-type HeLa cells: 3.5 fold
B1: PLEKHM1-GFP10 (natural protein, UniProt Q9Y4G2 1-1056, looked up)
chain: MLSVVENGLDPQAAIPVIKKKLVGSVKALQKQYVSLDTVVTSEDGDANTMCSALEAVFIHGLHAKHIRAEAGGKRKKSAHQKPLPQPVFWPLLKAVTHKHIISELEHLTFVNTDVGRCRAWLRLALNDGLMECYLKLLLQEQARLHEYYQPTALLRDAEEGEFLLSFLQGLTSLSFELSYKSAILNEWTLTPLALSGLCPLSELDPLSTSGAELQRKESLDSISHSSGSEDIEVHHSGHKIRRNQKLTASSLSLDTASSSQLSCSLNSDSCLLQENGSKSPDHCEEPMSCDSDLGTANAEDSDRSLQEVLLEFSKAQVNSVPTNGLSQETEIPTPQASLSLHGLNTSTYLHCEAPAEPLPAQAASGTQDGVHVQEPRPQAPSPLDLQQPVESTSGQQPSSTVSETAREVGQGNGLQKAQAHDGAGLKLVVSSPTSPKNKSWISEDDFYRPSREQPLESASDHPIASYRGTPGSRPGLHRHFSQEPRKNCSLGALDQACVPSPGRRQAQAAPSQGHKSFRVVHRRQMGLSNPFRGLMKLGTVERRGAMGIWKELFCELSPLEFRLYLSNEEHTCVENCSLLRCESVGPAHSDGRFELVFSGKKLALRASSQDEAEDWLDRVREALQKVRPQQEDEWVNVQYPDQPEEPPEAPQGCLSPSDLLSEPAALQGTQFDWSSAQVPEPDAIKESLLYLYMDRTWMPYIFSLSLEALKCFRIRNNEKMLSDSHGVETIRDILPDTSLGGPSFFKIITAKAVLKLQAGNAEEAALWRDLVRKVLASYLETAEEAVTLGGSLDENCQEVLKFATRENGFLLQYLVAIPMEKGLDSQGCFCAGCSRQIGFSFVRPKLCAFSGLYYCDICHQDDASVIPARIIHNWDLTKRPICRQALKFLTQIRAQPLINLQMVNASLYEHVERMHLIGRRREQLKLLGDYLGLCRSGALKELSKRLNHRNYLLESPHRFSVADLQQIADGVYEGFLKALIEFASQHVYHCDLCTQRGFICQICQHHDIIFPFEFDTTVRCAECKTVFHQSCQAVVKKGCPRCARRRKYQEQNIFA
